{"source": "paper PMC11949031", "binders": {"B1": {"name": "m1 (prey) and m3 (bait) p.Leu237Pro (HA-tagged prey); p.Leu237Pro (His-tagged bait) (protein)", "chain": "MTVSGPGTPEPRPATPGASSVEQLRKEGNELFKCGDYGGALAAYTQALGLDATPQDQAVLHRNRAACHLKLEDYDKAETEASKAIEKDGGDVKALYRRSQALEKLGRLDQAVLDLQRCVSLEPKNKVFQEALRNIGGQIQEKVRYMSSTDAKVEQMFQILLDPEEKGTEKKQKASQNLVVLAREDAGAEKIFRSNGVQLLQRLLDMGETDLMLAALRTLVGICSEHQSRTVATLSIPGTRRVVSILGVESQAVSLAACHLLQVMFDALKEGVKKGFRGKEGAIIVDPARELKVLISNLLDLLTEVGVSGQGRDNALTLLIKAVPRKSLKDPNNSLTLWVIDQGLKKILEVGGSLQDPPGELAVTANSRMSASILLSKLFDDLKCDAERENFHRLCENYIKSWFEGQGLAGKLRAIQTVSCLLQGPCDAGNRALELSGVMESVIALCASEQEEEQLVAVEALIHAAGKAKRASFITANGVSLLKDLYKCSEKDSIRIRALVGLCKLGSAGGTDFSMKQFAEGSTLKLAKQCRKWLCNDQIDAGTRRWAVEGLAYLTFDADVKEEFVEDAAALKALFQLSRLEERSVLFAVASALVNCTNSYDYEEPDPKMVELAKYAKQHVPEQHPKDKPSFVRARVKKLLAAGVVSAMVCMVKTESPVLTSSCRELLSRVFLALVEEVEDRGTVVAQGGGRALIPLALEGTDVGQTKAAQALAKLTITSNPEMTFPGERIYEVVRPLVSLLHLNCSGLQNFEALMALTNLAGISERLRQKILKEKAVPMIEGYMFEEHEMIRRAATECMCNLAMSKEVQDLFEAQGNDRLKLLVLYSGEDDELLQRAAAGGLAMLTSMRPTLCSRIPQVTTHWLEILQALLLSSNQELQHRGAVVVLNMVEASREIASTLMESEMMEILSVLAKGDHSPVTRAAAACLDKAVEYGLIQPNQDGE"}, "B2": {"name": "His-tagged UNC45A wild-type, Q9H3U1-1 p.Leu237Pro (protein)", "chain": "B1 chain"}, "B3": {"name": "HA-tagged UNC45A wild-type (Unc-45 myosin chaperone A), Q9H3U1-1 p.Leu237Pro (protein)", "chain": "B1 chain"}}, "assay_in_all_cases": "Ni-NTA pull-down with immunoblot quantification (ImageJ)", "conditions_in_all_cases": "chain shown with the change; U2OS UNC45A-KO cells cotransfected; 5 independent experiments; parent: est. 1; read off a plot", "key": {"[1]": {"target": "T1, His-tagged UNC45A p.Leu237Pro mutant, Q9H3U1-1", "T1 chain": "B1 chain"}, "[2]": {"target": "T2, HA-tagged UNC45A wild-type (Unc-45 myosin chaperone A), Q9H3U1-1", "T2 chain": "B1 chain with P237L"}, "[3]": {"target": "T3, His-tagged UNC45A wild-type, Q9H3U1-1", "T3 chain": "B1 chain with P237L"}}, "note": "Numbering of substitutions follows the chain as printed."}
{"binder": "B1", "values": [{"measurement": "ratio to parent", "setting": "[1]", "result": 12, "unit": "fold change"}]}
{"binder": "B2", "values": [{"measurement": "ratio to parent", "setting": "[2]", "result": 2.2, "unit": "fold change"}]}
{"binder": "B3", "values": [{"measurement": "ratio to parent", "setting": "[3]", "result": 1.6, "unit": "fold change"}]}
